The values below come from publication PMC11370580.

Series [1] has as its system HMGB1-WT (Homo sapiens). As to the kind of experiment: restriction enzyme accessibility.
Series [2] concerns HMGB1-WT (Homo sapiens). As to the kind of experiment: EMSA. The settings on record: scale: fold lower affinity than with flanking DNA. For orientation: In EMSA bound probe runs differently from free probe, usually more slowly.

In turn, 40/40-Pst137 nucleosome yielded a K half in the series with HMGB1-WT (Homo sapiens) [1] of 113 nM.

In the case of core nucleosome (0/0), the binding signal in the series on HMGB1-WT (Homo sapiens) [2] turned out to be 10.
